Measurements from PMC12630357 (The Journal of Biological Chemistry, 2025).

Molecular target: T1, 6xHis-CotV (Bacillus subtilis 168, UniProt Q08309 1-128)
T1 construct: CotV, spore coat (crust) protein of Bacillus subtilis strain 168; native ORF printed as 129 residues; residues 1-125 resolved in the model; Forms a helical filament; the number of copies is not fixed; also called 6xHis-tagged CotV; CotV1; source: E. coli BL21(DE3), coexpressed with CotW from pET-DUET, Ni-NTA purified as the CotVW complex; not shown: 6xHis (within an N-terminal extension of 14 …)
T1 sequence (looked up): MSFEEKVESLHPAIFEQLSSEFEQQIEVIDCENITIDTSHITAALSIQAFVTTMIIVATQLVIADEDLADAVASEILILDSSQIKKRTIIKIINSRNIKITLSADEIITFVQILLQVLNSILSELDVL
Assay: cryo-EM structure; helical reconstruction of 6xHis-tagged CotVW filaments, 3.32 Å; twist 153.09°, rise 9.52 Å, one CotV-CotW heterodimer per asymmetric unit
Conditions: both partners purified

B1: CotW (natural protein, Bacillus subtilis 168, UniProt Q08310 1-105, looked up)
chain: MSDNDKFKEELAKLPEVDPMTKMLVQNIFSKHGVTKDKMKKVSDEEKEMLLNLVKDLQAKSQALIENQKKKKEEAAAQEQKNTKPLSRREQLIEQIRQRRKNDNN
notes: CotW, spore coat (crust) protein of Bacillus subtilis strain 168; native ORF 105 residues; residues 18-98 resolved in the model; also called CotW1; CotW monomer; source: E. coli BL21(DE3), coexpressed with 6xHis-CotV from pET-DUET, co-purified on Ni-NTA as the CotVW complex; not shown: single added tyrosine, C-terminal, kept
- stoichiometry N: 1
